US20260209319A1 (JECHO LABORATORIES, published 2026)
Where a chain is given by its changes, count along the chain named. Names and notes keep the numbering of the source. Blank lines part the entries; values can stand above or below the binder they belong to.

Columns and labels:
[1] = molecular target: T1, mesothelin on the cell surface (OVCAR3, Capan-2 cells) (UniProt Q13421 296-598); test: cell-based or functional assay
[2] = molecular target: T2, mesothelin (soluble, recombinant) (UniProt Q13421 296-580, limits assumed); test: method not stated; quoted in the T cell activation example
T2 construct: also called MSLN; soluble MSLN

CD3 on Jurkat cells = molecular target: T3, CD3 on Jurkat cells (UniProt P07766 23-207); test: flow cytometry on Jurkat cells
T3 construct: whole, on cells; Part of the TCR/CD3 complex on cells

[3] = molecular target: T1, mesothelin on the cell surface (OVCAR3, …); test: flow cytometry on OVCAR3 cells
[4] = molecular target: T2, mesothelin (soluble, recombinant); test: Octet BLI, bsAb captured on AHC biosensors, mesothelin 0-200 nM, 1:1 model
Excerpt: The Fe-epitope anti-human capture (AHC) biosensors from ForteBio were used for loading the testing bsAbs. […] A probe loaded with a control antibody was used as a reference sensor. […] The dissociation constants (KD) and Kₒₙ/Koff are estimated by fitting to the 1:1 binding model. The probes were regenerated for multiple rounds of measurements.

[5] = molecular target: T2, mesothelin (soluble, recombinant); test: cell-based or functional assay
[6] = molecular target: mesothelin on the cell surface (OVCAR3, Capan-2 cells) (UniProt Q13421 296-598); test: cell-based or functional assay; remark: listed apart in the source
[7] = molecular target: T2, mesothelin (soluble, recombinant); test: SPR, Biacore 3000, antibody captured via an Fc antibody, mesothelin 0.625-10 nM
[8] = molecular target: T2, mesothelin (soluble, recombinant); test: SPR (Biacore 3000), antibody captured on the chip via an Fc antibody, mesothelin 0.625-10 nM [text above the curves]
Description: The measurement was performed by immobilizing the tested antibody and then perfusing with corresponding concentrations of mesothelin.

EC50, T cell activation assay (Jurkat NFAT-luciferase reporter) in the presence of Capan-2 cells [1]: 6.92 µg/mL
EC50, T cell activation assay (Jurkat NFAT-luciferase reporter) in the presence of OVCAR3 cells [1]: 6.64 µg/mL
Kd [2]: 72 nM
EC50 (CD3 on Jurkat cells): 0.403 µg/mL
EC50 [3]: 0.572 µg/mL
B1: m912-[L]-scFv^CD3 bsAb (bispecific antibody, V domains shown)
VH: QVQLQESGPGLVKPSETLSLTCTVSGGSVSSGSYYWSWIRQPPGKGLEWIGYIYYSGSTNYNPSLKSRVTISVDTSKNQFSLKLSSVTAADTAVYYCAREGKNGAFDIWGQGTMVTVSS
VL: not shown

EC50, T cell activation assay (Jurkat NFAT-luciferase reporter) in the presence of Capan-2 cells [1]: 0.0117 µg/mL
EC50, T cell activation assay (Jurkat NFAT-luciferase reporter) in the presence of OVCAR3 cells [1]: 0.0098 µg/mL
Kd [4]: 0.00171 nM
koff [4]: 2.44e-07 s⁻¹
kon [4]: 221000 M⁻¹ s⁻¹
EC50 (CD3 on Jurkat cells): 0.521 µg/mL
EC50 [3]: 0.0121 µg/mL
B2: MSLN-30-[L]-scFv^CD3 bsAb (bispecific antibody, V domains shown)
VH: B1 VH with G32R, S33D, Y34D, Y35L, E100D, G101F, K102V, N103L, G104S, A105G
VL: DIQMTQSPSSLSASVGDRVTITCRASQSISSYLNWYQQKPGKAPKLLIYAASSLQSGVPSRFSGSGSGTDFTLTISSLQPEDFATYYCQQPYDASYTFGGGTKVEIK

EC50, T cell activation assay (Jurkat NFAT-luciferase reporter) in the presence of Capan-2 cells [1]: 0.0128 µg/mL
EC50, T cell activation assay (Jurkat NFAT-luciferase reporter) in the presence of OVCAR3 cells [1]: 0.0082 µg/mL
Kd [4]: 0.00107 nM
koff [4]: 4.05e-07 s⁻¹
kon [4]: 379000 M⁻¹ s⁻¹
EC50 (CD3 on Jurkat cells): 0.893 µg/mL
EC50 [3]: 0.0124 µg/mL
B3: MSLN-39-[L]-scFv^CD3 bsAb (bispecific antibody, V domains shown)
VH: B1 VH with G32F, S33T, Y34D, Y35T, G101D, K102A, N103L, G104T, A105G
VL: B2 VL with I29S, S30R, S31Y, L33V, P91S
fold increase of the IC50 in the luciferase-based cytotoxicity assay on NCI-N87 cells at 200 ng/mL of soluble MSLN [5]: 27 fold

EC50, T cell activation assay (Jurkat NFAT-luciferase reporter) in the presence of Capan-2 cells [1]: 0.0105 µg/mL
EC50, T cell activation assay (Jurkat NFAT-luciferase reporter) in the presence of OVCAR3 cells [1]: 0.0087 µg/mL
Kd [4]: 2.91 nM
koff [4]: 0.000809 s⁻¹
kon [4]: 278000 M⁻¹ s⁻¹
EC50 (CD3 on Jurkat cells): 0.636 µg/mL
EC50 [3]: 0.0096 µg/mL
B4: HP4-44-[L]-scFv^CD3 bsAb (bispecific antibody, V domains shown)
VH: B1 VH with G101D, K102V, N103L, G104S, A105G
VL: B2 VL with P91S, S95F
fold increase of the IC50 in the luciferase-based cytotoxicity assay on NCI-N87 cells at 200 ng/mL of soluble MSLN [5]: 2.5 fold

EC50, T cell activation assay (Jurkat NFAT-luciferase reporter) in the presence of Capan-2 cells [6]: 0.0156 µg/mL
EC50, T cell activation assay (Jurkat NFAT-luciferase reporter) in the presence of OVCAR3 cells [6]: 0.0116 µg/mL
Kd [4]: 0.00118 nM
koff [4]: 3.03e-07 s⁻¹
kon [4]: 258000 M⁻¹ s⁻¹
B5: MSLN-31-[L]-scFv^CD3 bsAb (bispecific antibody, V domains shown)
VH: B1 VH with G32F, S33T, Y34D, Y35T, E100D, G101F, K102V, N103L, G104S, A105G
VL: B2 VL
notes: IgG-[L]-scFv format; also called MSLN-31 bsAb; not shown: IgG heavy constant region (N297G, K322A), light constant region and the huOKT3-scFv with its 3xG4S linker; copies: 2 + 2

Kd [7]: 0.0564 nM
koff [8]: 8.93e-05 s⁻¹
kon [8]: 1.58e+06 M⁻¹ s⁻¹
B6: MSLN-39 IgG (antibody, V domains shown)
VH: B1 VH with G32F, S33T, Y34D, Y35T, G101D, K102A, N103L, G104T, A105G
VL: B2 VL with I29S, S30R, S31Y, L33V, P91S
notes: IgG; also called MSLN-39 antibody; MSLN-39 in IgG format
